The values that follow come from article PMC12596378, “Nonstructural Protein 1 Mediates HMGB1 Release by Targeting Histone H1.0 After Respiratory Syncytial Virus Infection In Vivo and In Vitro” (Inflammation, 2025).

In this experiment the target is T1, His-H1.0 fusion protein (histone H1.0) (UniProt P07305 2-194).
T1 construct: histone H1.0; Used in the pull-down and as analyte in SPR; source: E. coli BL21, purified (Ni-NTA Sepharose)
Kind of experiment: SPR; BIAcore T200; His-NS1 amine-coupled on a CM5 chip (600 RU); H1.0 at 0-500 nM in PBS flowed over, 30 uL/min, dissociation 360 s. The following applies: both partners purified.

T1 sequence (P07305 2-194): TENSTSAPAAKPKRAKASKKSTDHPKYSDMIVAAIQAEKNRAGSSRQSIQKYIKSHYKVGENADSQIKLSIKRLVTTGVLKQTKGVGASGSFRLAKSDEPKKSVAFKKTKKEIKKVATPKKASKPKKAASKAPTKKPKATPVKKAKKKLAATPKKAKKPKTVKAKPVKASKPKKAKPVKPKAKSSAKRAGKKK

B1: His-NS1 fusion protein (respiratory syncytial virus nonstructural protein 1) (natural protein)
chain: MGSNSLSMIKVRLQNLFDNDEVALLKITCYTDKLIHLTNALAKAVIHTIKLNGIVFVHVITSSDICPNNNIVVKSNFTTMPVLQNGGYIWEMMELTHCSQPNGLLDDNCEIKFSKKLSDSTMTNYMNQLSELLGFDLNP
notes: nonstructural protein 1 (NS1) of respiratory syncytial virus; Immobilised by amine coupling on the CM5 chip; source: E. coli BL21, purified
The molecule B1 had a dissociation constant (Kd) of 31.2 nM and a kon of 25400 M⁻¹ s⁻¹.
